Test: soluble on expression in E. coli; label from the status in PepcDB or PDB records

Row | Sequence | soluble on expression in E. coli
1 | MNHKALFSGKLVFIGFGSITRATLGLLGNVQRFDVSRIVVIAPGIKGSEPFVKSGVTFIDQALTSDTMESVLGSIVGQGDFIVNLSVNVCSADVIRFAYAHDALYLDTCIEPWGNTYNSPSLTASQRSNYALRDQLRTLGAELGPGPTAVVAHGANPGLISHFLKCALSALAEQLSVAVPRHQGGIDWGNLSMKLGVKVIHIAERDTQRSTRIKSDGEFVNTWSVDGFVSEAGQPAELGWGSHEKNWPPFARHHQFGSDNAIYLDRPGACVSVKTWTPNGGPCNAMLITHNEAISIPELLTVRNEGALSYRPTVHYAYHPCDDALLSINEYTGRGWHAQDRQRIMLDEITPGGIDALGVLIMGHKLNAYWYGSILNIDEARRLAPFNNATSLQVAAGVYSGIIWAIENPDRGIVEPEQMDHQRVMEIALPFLGKFGGVLTDWTPLKTGNALFRKPDADACPWQFEHFTAALEHHHHHH | not soluble
2 | MNHQYQDLIDIFNQTFYADYNTKLELGGDEPIYLPADERVSYHRIIFARGFYASALHEIAHWCVAGPQRRLLEDFGYWYEPDGRTAQVQAEFEKVEIRPQAYEWILAISAGFPFTVSCDNLNGDFEPDRLAFMSKVHSEVLKILEQGLPQRVKMLSEALRAFYQTPALLPEHFVVK | not soluble
3 | MNHYVYILECKDGSWYTGYTTDVDRRIKKHASGKGAKYTRGRGPFRLVATWAFPSKEEAMRWEYEVKHLSRRKKEQLVSLKGGPYENTTKLSTTMAGDPLEHHHHHH | soluble
4 | MNIENPAPILDQDPYVQAYPETRAFWEAAAQGRFVLPRCRDCGQSHWYPRGLCPLCGSTALEWQDAAGTGTLYSYSVMRAAPQPYAIAYVQLAEGPLVLTNIVDSDLERLRIGQPVRVAFQRTQEGRSAPVFVALAD | not soluble
5 | MNIKRNIIFALESRKKDGVLIVENVPIRMRVNFASQRIEFTTGYRIDVAKWDADKQRVKNGCTNKLKQSASEINAALLGYYTELQEVFKRFEVAEVMPSPADVKSAFNARHRSDDVQTEQTSDKPDASAEFYKAFDEFVRVCGRQNDWTHATYEKFAAVKNHLRSFRADLSFSFFNEVGLTEYVRYLREVRKMRNSTIGKQLSFLKWFLRWSFGQGIHSNNAYDTFRPKLKDTQKKIIFLTWEELTKLREFEIPPAKQSLDRVRDVFLFQCFTGLRYSDVYNLRRSDIKEDHIEVTTIKTSDSLVIELNKHSKAILEKYQDVVFEHDKALPVITNQKMNEYLKELAELAGINEPIRQTYYKGNERIDEVTPKYALLGTHAGRRTFICNALALGIPPQVVMKWTGHSDYKAMKPYIDIADDIKANAMSKFNQL | not soluble
6 | MNILNIKEGQHYIAKIESHSFVDGEGVRCSVYVSGCPFQCKGCYNVKAQNFKYGEPFELEMLEEILDYCAPSYIEGLSILGGEPFCNLFITLQLVEAFRQRFGHTKTIWVWTGFLFEYLKQQDDARKSLLEHIDVLVDGMFIQHLYRPNLPYKGSLNQRVIDVQSSLQKEQVIEYLTKLEHHHHHH | not soluble
7 | MNINEILKKLINKSDLEINEAEELAKAIIRGEVPEILVSAILVALRMKGESKNEIVGFARAMRELAIKIDVPNAIDTAGTGGDGLGTVNVSTASAILLSLVNPVAKHGNRAVSGKSGSADVLEALGYNIIVPPERAKELVNKTNFVFLFAQYYHPAMKNVANVRKTLGIRTIFNILGPLTNPANAKYQLMGVFSKDHLDLLSKSAYELDFNKIILVYGEPGIDEVSPIGNTFMKIVSKRGIEEVKLNVTDFGISPIPIEKLIVNSAEDSAIKIVRAFLGKDEHVAEFIKINTAVALFALDRVGDFREGYEYADHLIEKSLDKLNEIISMNGDVTKLKTIVVKSSG | soluble
8 | MNIPQLTALCLRYHGVLLDASEEVVHVAVVDAPSHELLDALHFATTKRIEITCWTRQQMEGHASRTQQTLPVAVQEKHQPKAELLTRTLQSALEQRASDIHIEPADNAYRIRLRIDGVLHPLPDVSPDAGVALTARLKVLGNLDIAEHRLPQDGQFTVELAGNAVSFRIATLPCRGGEKVVLRLLQQVGQALDVNTLGMQPLQLADFAHALQQPQGLVLVTGPTGSGKTVTLYSALQKLNTADINICSVEDPVEIPIAGLNQTQIHPRAGLTFQGVLRALLRQDPDVIMIGEIRDGETAEIAIKAAQTGHLVLSTLHTNSTCETLVRLQQMGVARWMLSSALTLVIAQRLVRKLCPHCRRQQGEPIHIPDNVWPSPLPHWQAPGCVHCYHGFYGRTALFEVLPITPVIRQLISANTDVESLETHARQAGMRTLFENGCLAVEQGLTTFEELIRVLGMPHGE | soluble
9 | MNIPTTTTKGEQAKSQLIAAALAQFGEYGLHATTRDIAALAGQNIAAITYYFGSKEDLYLACAQWIADFLGEKFRPHAEKAERLFSQPAPDRDAIRELILLACKNMIMLLTQEDTVNLSKFISREQLSPTSAYQLVHEQVIDPLHTHLTRLVAAYTGCDANDTRMILHTHALLGEVLAFRLGKETILLRTGWPQFDEEKAELIYQTVTCHIDLILHGLTQRSLD | soluble
10 | MNIQPTIQSGITSQNNQHHQTEQIPSTQIPQSELPLGCQAGFVVNIPDDIQQHAPECGETTALLSLIKDKGLLSGLDEYIAPHLEEGSIGKKTLDMFGLFNVTQMALEIPSSVSGISGKYGVQLNIVKPDIHPTSGNYFLQIFPLHDEIGFNFKDLPGPLKNALSNSNISTTAVSTIASTGTSATTSTVTTEPKDPIPWFGLTAQVVRNHGVELPIVKTENGWKLVGETPLTPDGPKANYTEEWVIRPGEADFKYGASPLQATLGLEFGAHFKWDLDNPNTKYAVLTNAAANALGALGGFAVSRFASTDPMLSPHIGAMVGQAAGHAIQYNTPGLKPDTILWWAGATLGAADLNKAEFEVARFTDYPRIWWHAREGAIFPNKADIEHATGADIRAMEEGIPVGQRHPNPEDVVIDIESNGLPHHNPSNHVDIFDIIQETRV | not soluble
11 | MNIQSIETYQVRLPLKTPFVTSYGRLEEKAFDLFVITDEQGNQGFGELVAFEQPDYVQETLVTERFIIQQHLIPLLLTEAIEQPQEVSTIFEEVKGHWMGKAALETAIWDLYAKRQQKSLTEFFGPTRRKIPVGISLGIQEDLPQLLKQVQLAVEKGYQRVKLKIRPGYDVEPVALIRQHFPNLPLMVDANSAYTLADLPQLQRLDHYQLAMIEQPFAADDFLDHAQLQRELKTRICLDENIRSLKDCQVALALGSCRSINLKIPRVGGIHEALKIAAFCQENDLLVWLGGMFESGVGRALNLQFASQPTFSFPGDISATERYFYEDIITEPFILEQGTMTVPQGLGIGVTLSQTNLLKYSQYQKIM | not soluble
12 | MNIVIAAVGGQGAVLTSKILGTLAQNLGKDVKVSEVHGMSQRGGSVVAYVKFGDKVYSPVVEKGTADIVLAFEMLEGARYVDYLKENGKLVVNTQRIDPMPVITGDMEYPADLGEKLEELNIGYIPVDALSLAKNAGTIKAVNVALIGVLAQNSNIKKEEWIKAIKDTVPEKFLELNLKAFELGYNL | not soluble
13 | MNKIALFVDVQNIYYTCREAYQRQFNYRKLWQHLSTQGEIVSAVAYAIHRGDDGQLKFQDALRHIGFELKLKPFIQRSDGSAKGDWDVGITIDVLDAAPNVDTVILLSGDGDFAILLEKITQKYGVKAEVYGVPQLTAKALMDATTQFNPIDDVLLL | soluble
14 | MNKILIIISCILIMLTAFSCRRNVFNPNIPPRTEFIEDPIANLSIPSKDATIKVTPVEASINGYDSKSGQYGKMVYGHFEHYFEFKGHYYLTAAYQYIYGYTNEVIMIGNTTLMNYPNGHILEIDVNDGFKMKEVKANLGRTVPEYTRIAKIANGNAYQDDTYIYVQDSAGANYFKTSDFKSWTDTLSTTPPAGTTKREAVTMNRVQITANNGITYTYVYTGGGLQFSIERLDNRMKQLAQRLETKFTFKEEDFNNHHMFDIGINISTGTTADYRINPVEYIENDTNYIWIGKQSPHQIWLMPVKKDGKDYLIRFVEHCAGGGYYTIKMLETNINTYKKEAETALSKALAAVASDKPQAEIEQACYESIKADANYKANQYFYDVATKMGGLQGFWVGSPAVTEAGFISPNKPLTHYVIEFIDIQQ | not soluble
15 | MNKILLQCDNLCKRYQEGTVQTDVLHDVSFSIGEGEMMAIVGSSGSGKSTLLHLLGGLDTPTSGDVIFSGQPMSKLSSAAKAELRNQKLGFIYQFHHLLPDFTALENVAMPLLIGKKKPAEIDARAREMLHAVGLEHRATHRPSELSGGERQRVAIARALVNNPRLVLADEPTGNLDARNADSIFELLGELNRLQGTAFLVVTHDLQLAKRMSRQLEMRDGRLTAELSLMGAE | not soluble
